Measurements: the supplement of paper PMC10567573

B1: KRT18 (parent)
chain: RVRSLETENRRLESKIREHLEKKG

Variants of: B1
Test: protein stability index of a GFP-peptide fusion (GPS, HEK-293T) (PSI 1-6); higher = more stable
Conditions: c terminus: a fixed tail appended
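Further: lentivirally expressed fusions sorted by FACS into six bins by GFP to DsRed ratio, PSI derived from sequencing read proportions per bin multiplied by bin number.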

Protein stability index of substitutions, site by site:
K22: W 3.02, G 4.06, A 3.65, M 3.73, E 4.86, F 4.16, Y 4.08, S 4.05, V 4.52, N 4.09, R 4.21, T 4.45, Q 4.89, I 3.85, C 4.61, P 4.82, L 4.12
I16: D 5.71, E 3.79, C 4.79, W 4.96, P 5.28, V 4.37, Q 5.09, M 5.17, T 4.29, L 4.32, G 5.45, Y 4.63, S 5.16, N 5.56
H19: I 4.03, N 4.78, A 4.46, P 5.53, W 2.25, G 5.48, T 5.01, F 4, C 3.82, V 4.49, S 4.79, Q 5.04, E 5.26, D 5.22
S14: A 4.6, E 4.78, W 3.98, P 4.86, C 3.84, K 4.19, V 4.16, Q 4.99, G 4.96, H 4.92, I 4.38, L 4.59, N 3.68, T 4.47, Y 4.24
G24: M 3.73, D 4.87, K 4.57, I 3.83, L 4.03, C 3.69, H 4.48, W 4.04, P 4.13, Q 4.14, Y 3.92, R 3.81, F 3.56, V 4.01, N 4.61
E18: W 4.51, H 3.99, T 4.25, R 3.99, A 4.46, S 4.55, G 4.91, D 4.53, V 3.88, K 3.95, N 4.52, F 3.22, M 3.94, Y 4.07, P 4.88, Q 3.75, I 4.29, C 3.81
E13: D 2.98, R 3.99, V 3.74, Q 3.95, I 2.37, P 4.33, G 4.75, T 4.1, S 3.91, C 4.3, N 4.89, M 3.26, H 4.21, K 4.84, Y 3.05, W 3.85, A 4.22, F 2.16
E21: F 3.67, D 4.98, A 4.21, Q 3.74, W 3.32, V 3.93, L 3.19, M 4.15, T 4.2, C 4.28, R 3.99, G 4.62, K 3.75, I 3.9, H 4.43, S 4.36, N 4.11
K23: I 3.2, V 4.14, N 4.78, C 3.86, D 5.45, H 3.96, F 3.76, S 4.52, Q 4.32, A 4.56, T 4.22, G 4.75, L 3.87
R10: F 4.76, G 4.68, C 4, K 4.36, A 4.16, L 4.49, V 5.08, S 4.88, N 4.69, I 4.42, H 4.74, D 4.3, Y 4.94, T 4.71, P 5.08, E 4.79, M 5.26
R17: P 4.84, Q 4.54, A 3.79, G 5.38, K 4.39, S 5.14, D 5.49, Y 4.92, V 4.96
